# Measured values from patent publication US20100285015A1.
# Tests used:
# [1] = target: glycophorin A associated protein (GPA) on mouse red blood cells (mouse); assay: 125I-labeled fusion on mouse RBCs, 10% hematocrit, 1 h at 37° C, gamma counting
# [2] = target: glycophorin A associated protein (GPA) on mouse red blood cells (mouse); assay: 125I-labeled fusion injected i.v. in mice; RBC vs plasma radioactivity in blood (in vivo)
# [3] = target: glycophorin A associated protein (GPA) on mouse red blood cells (mouse); assay: 125I-labeled fusion at 40 µg/ml on mouse RBCs at ~50% hematocrit in PBS/BSA or heparinated plasma, 37° C, time course
# [4] = target: glycophorin A associated protein (GPA) on mouse red blood cells (mouse); assay: preloaded mouse RBCs injected in mice; RBC vs plasma radioactivity (in vivo)
# [5] = target: glycophorin A associated protein (GPA) on mouse red blood cells (mouse); assay: 125I-labeled fusion on mouse RBCs, 1% hematocrit, saturation binding (FIG. 4C)
# [6] = target: human red blood cells (human); assay: 125I-labeled fusion on human RBCs, 10% hematocrit, 1 h at 37° C, gamma counting
binder,measurement,setting,value
"Ter119scFv-mRNK fusion protein (protein, 125I radiolabel in the binding assays) RSPWPGVPTSQVKLQESGGGLVQPGGSLKLSCVASGFTFRDHWMNWVRQAPGKTMEWIGDIRPDGSDTNYAPSVRNRFTISRDNARSILYLQMSNMRSDYTATYYCVRDSPTRAGLMDAWGQGASVTVLTGGGGSGGGGSGGGGSDIQMIQSPSVLSASVGDRVTLNCKASQNINKYLNWYQQKLGEAPKVLIYNTNNLQTGIPSRFSGSGSGTDFTLTISSLQPEDFATYFCFQHYTWPTFGGGTKLELKRASSSSGSSSSGAAAPKGKSEDCYVGKGVTYRGTHSLTTSQASCLPWNSIVLMGKSYTAWRTNSQALGLGRHNYCRNPDGDARPWCHVMKDRKLTWEYCDMSPCSTCGLRQYKRPQFRIKGGLYTDITSHPWQAPIFVAAAASPGERFLCGGVLISSCWVLSAAHCFLERFPPNHLKVVLGRTYRVVPGEEEQTFEIEKYIVHEEFDDDTYDNDIALLQLRSQSKQCAQESSSVGTACLPDPNLQLPDWTECELSGYGKHEASSPFFSDRLKEAHVRLYPSSRCTSQHLFNKTVTNNMLCAGDTRSGGNQDLHDACQGDSGGPLVCMINKQMTLTGIISWGLGCGQKDVPGVYTKVTNYLDWIHDNMKQ",molecules/mRBC (molecules/mRBC),[1],20000
same,percent associated with RBC,[2],90%
same,50% saturation time,[3],30 min
same,percent of fusion in the bloodstream associated with RBCs (one hour),[4],90 % ID
same,percent of fusion in the bloodstream associated with RBCs (three hours),[4],75 % ID
same,Bmax (molecules/RBC),[5],80000
same,Kd,[5],77.9 nM
same,molecules/hRBC (molecules/hRBC),[6],120
